Series [1] concerns the target AmβXyl, β-xylosidase (GH3) from Alicyclobacillus mali FL18 (Alicyclobacillus mali FL18). Briefly: SEC-MALS; size-exclusion chromatography (S200 16/60) with triple-angle light scattering and QELS; 500 μg loaded; 100 mM NaCl, 25 mM sodium phosphate pH 7.5, 1 mM DTT; 0.5 mL/min.
Substrate in series [2]: O=[N+]([O-])c1ccc(O[C@@H]2OC[C@@H](O)[C@H](O)[C@H]2O)cc1
Briefly: pNP release, A405 nm, Michaelis-Menten fit (GraphPad Prism). It is filed as biochemical, Alicyclobacillus mali (ex Roth et al. 2021). Particulars: 50 mM sodium citrate pH 5.6, 1 mM DTT, 80 °C, substrate 0.1-8.0 mM. The source says:
(§1) pNP release, A405 nm, Michaelis-Menten fit (GraphPad Prism) on AmβXyl

Substrate in series [3]: O=[N+]([O-])c1ccc(O[C@@H]2O[C@@H](CO)[C@H](O)[C@H]2O)cc1
The series is described as above. Format: biochemical, Alicyclobacillus mali (ex Roth et al. 2021). The conditions noted are these: 50 mM sodium citrate pH 5.6, 1 mM DTT, 80 °C, substrate 0.1-8.0 mM.
From the text: as §1

The record followed here is PMC9696088, “Alicyclobacillus mali FL18 as a Novel Source of Glycosyl Hydrolases: Characterization of a New Thermophilic β-Xylosidase Tolerant to Monosaccharides” (International Journal of Molecular Sciences, 2022).

“AmβXyl, β-xylosidase (GH3) from Alicyclobacillus mali FL18 (enzyme)” showed a stoichiometry N in series [1] of 2.

B1: AmβXyl (Alicyclobacillus mali (ex Roth et al. 2021)) (protein)
chain: MYLDPAQSVDARVDALLADMTLEEKVAQLTSIWAFEILDDLRFSAEKAAAVLGQGIGQVTRIGGATNLDPPDVARLANQIQRYLRDHTRLGIPALIHEESCSGYMAKGATCFPQTIGIASTWDVDLAQRIGAIIRDQMRAVGARQALAPLLDVARDPRWGRVEETFGEDPYLVAQMGIAYVRGLQGEDLSQGVMATGKHFVGYGASEGGMNWAPAHIPERELREVYLFPFEAAVREAGLGAIMPGYHELDGVPCHDNPGLLRETLRGRWGFQGLVVSDYFAVNQLFEYHQVARDKAEAAALAVRAGVDVELPTRDVYGKPLIEAVARGLVSVAEIDELVRRVLTWKFRLGLFDHPFVDEGAAIAVFDNAEQRKVAREAAEKSLVLLKNDGLLPLAPRGTIAVIGPNAHTTRNLVGDYAYPCHIESLLEQSEDNVFQTPLPSGVKHVDEFIPMRTILEAIGHRVGSEAQVVYAKGCDVLEGEDADLDEAVALAAQSDVAVVVVGDRAGLTDACTTGESRDRATLSLIGRQEELVRRVLATGTKTVVVLVSGRPLAIPDIAERANAVLEAWLPGEEGAEAVAAVLFGDVNPSGKLPVTIPRSVGQVPIYYGHKPSGGRSHWKGAYVDESNLPLYPFGHGLSYTAFEYRDLTLSASELGVHGEIEVACVIENVGARAGEEVVQLYARDVAADVTRPVKVLCGFARVPLAPGEKARVRFRVSAHQFGFYNREMRYVVEPGEIEIMVGASSEDIRLRGMVRIHGAMTEIEHEKVYQSAVNVERM
notes: synthetic codon-optimised gene in pET-30a(+) NcoI/HindIII, N-terminal His-tag; E. coli BL21 (DE3) RIL; ~89 kDa on SDS-PAGE, dimer ~177 kDa
Consider B1, for which, in series [2], the Km worked out at 0.52 mM, the kcat was found to be 1610 s⁻¹ and the specificity constant (kcat/Km) was determined as 3.09e+06 M⁻¹ s⁻¹. Also, in series [3], the Km turned out to be 10.56 mM, the kcat turned out to be 2400 s⁻¹ and the specificity constant (kcat/Km) was 227000 M⁻¹ s⁻¹.
